# Laboratory results published in patent US9988424.
# Like-named read-outs stand apart in the source and are kept apart here.
# Legend:
# [1] = molecular target: B.6240 gp140C (HIV-1); test: ELISA
# [2] = molecular target: AE.A244 gp120 (HIV-1)
# [3] = molecular target: Env of 644039.c01b-CM235LucR.T2A.11 virus (HIV-1); test: cell-based or functional assay
# [4] = molecular target: Env of AE.92TH023 virus (HIV-1); test: cell-based or functional assay
# [5] = molecular target: Env of CM244NW.4.K169Q virus (HIV-1); test: cell-based or functional assay
# [6] = molecular target: Env of 703357.2.I181L virus (HIV-1); test: cell-based or functional assay
# [7] = molecular target: Env of 703357.c02 virus (HIV-1); test: cell-based or functional assay
# [8] = molecular target: Env of AE.CM244 virus (HIV-1); test: cell-based or functional assay
# [9] = molecular target: Env of Du422.1.LucR.T2A.ecto virus (HIV-1); test: cell-based or functional assay
# [10] = molecular target: Env of 427299.c12.Q169K virus (HIV-1); test: cell-based or functional assay
# [11] = molecular target: Env of 703357.2.Q169K virus (HIV-1); test: cell-based or functional assay
# [12] = molecular target: Env of CM235-2.LucR.T2A.ecto virus (HIV-1); test: cell-based or functional assay
# [13] = molecular target: Env of SC22.3C2.LucR.T2A.ecto virus (HIV-1); test: cell-based or functional assay
# [14] = molecular target: Env of CM244NW.6.I181L virus (HIV-1); test: cell-based or functional assay
# [15] = molecular target: Env of 427299.c12.H81L virus (HIV-1); test: cell-based or functional assay
# [16] = molecular target: Env of 427299.c12 virus (HIV-1); test: cell-based or functional assay
# [17] = molecular target: Env of 92TH023 K169Q virus (HIV-1); test: cell-based or functional assay
# [18] = molecular target: Env of RHPA.LucR.T2A.ecto virus (HIV-1); test: cell-based or functional assay
# [19] = molecular target: Env of Ce1086_B2.LucR.T2A.ecto virus (HIV-1); test: cell-based or functional assay
# [20] = molecular target: Env of 1051.C22.LucR.T2A.ecto virus (HIV-1); test: cell-based or functional assay
# [21] = molecular target: Env of 703357.2.Q169KI181L virus (HIV-1); test: cell-based or functional assay
# [22] = molecular target: Env of Du151.2.LucR.T2A.ecto virus (HIV-1); test: cell-based or functional assay
# [23] = molecular target: Env of TH023.6.I181L virus (HIV-1); test: cell-based or functional assay
# [24] = molecular target: Env of 703357.2.Q169KR170QI181L virus (HIV-1); test: cell-based or functional assay
# [25] = molecular target: Env of CM244.c01.ETH2220LucR.T2A.4 virus (HIV-1); test: cell-based or functional assay
# [26] = molecular target: Env of WITO.LucR.T2A.ecto virus (HIV-1); test: cell-based or functional assay
# [27] = molecular target: Env of 427299.c12.KL.Q169K/I181L virus (HIV-1); test: cell-based or functional assay
# [28] = molecular target: Env of Ce1176_A3.LucR.T2A.ecto virus (HIV-1); test: cell-based or functional assay
# [29] = molecular target: Env of 703357.2.Q169KR170Q virus (HIV-1); test: cell-based or functional assay
# [30] = molecular target: 92TH023 V2 cyclic peptide (HIV-1); test: RPMI 8866 cell adhesion to coated peptide, mAb 10 ug/ml
# [31] = molecular target: AE.427299 gp120D11/Q169K (HIV-1); test: ELISA
# [32] = molecular target: AE.A244 gp120 delta 11 (HIV-1); test: ELISA
# [33] = molecular target: AE.427299 gp120D11 (HIV-1); test: ELISA
# [34] = molecular target: AE.A244 gp120D11/K169V (HIV-1); test: ELISA
# [35] = molecular target: AE.A244 gp120 D11/K169V/V172E/H173Y (HIV-1); test: ELISA
# [36] = molecular target: AE.A244 V1V2 Tags (HIV-1); test: ELISA
# [37] = molecular target: AE.A244 V1V2 Tags (HIV-1)
# [38] = molecular target: AE.A244 gD+ gp120 (HIV-1); test: ELISA
# [39] = molecular target: AE.A244 gp120 (HIV-1); test: ELISA
# [40] = molecular target: AE.A244 gp120 delta 11 (HIV-1); test: ELISA; remark: listed apart in the source
# [41] = molecular target: A.Q23 V1V2 tags (HIV-1); test: ELISA
# [42] = molecular target: AE.A244 V1V2 Tags (HIV-1); test: ELISA; remark: listed apart in the source
# [43] = molecular target: AE.A244 gp120 N160K (HIV-1); test: ELISA
# [44] = molecular target: C.CAP206 gp140, natively deglycosylated (HIV-1); test: ELISA
# [45] = molecular target: J08 C.97ZA012V1V2N156QN160Q (HIV-1); test: ELISA
# [46] = molecular target: C.1086 gp120 Δ7 (HIV-1); test: ELISA
# [47] = molecular target: Env of AE.CM235 on infected CD4+ T cells (HIV-1)
# [48] = molecular target: Env of AE.CM235 on infected CD4+ T cells (HIV-1); test: flow cytometry on IMC CM235-infected CD4+ T cells, 10 ug/ml, negative control
# [49] = molecular target: α4β7 on RPMI 8866 cells (UniProt P13612)
# [50] = molecular target: α4β7 on RPMI 8866 cells (UniProt P13612); test: cells preincubated with ACT-1, adhesion to MADCAM-1 (competitor; 2 ug/ml)
# [51] = molecular target: B.JRFL gp140CF (HIV-1) (UniProt P20871); test: ELISA
# Chain of CH59 (antibody) (VH): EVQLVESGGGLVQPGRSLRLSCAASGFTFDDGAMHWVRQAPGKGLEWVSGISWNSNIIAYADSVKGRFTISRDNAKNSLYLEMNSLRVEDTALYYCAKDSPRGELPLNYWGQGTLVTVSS
# Chain of CH59 (antibody) (VL): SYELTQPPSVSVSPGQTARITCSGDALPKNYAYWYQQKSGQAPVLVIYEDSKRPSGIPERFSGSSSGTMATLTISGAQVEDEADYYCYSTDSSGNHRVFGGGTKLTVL
# Chain of CH01 (antibody) (heavy, form in doubt): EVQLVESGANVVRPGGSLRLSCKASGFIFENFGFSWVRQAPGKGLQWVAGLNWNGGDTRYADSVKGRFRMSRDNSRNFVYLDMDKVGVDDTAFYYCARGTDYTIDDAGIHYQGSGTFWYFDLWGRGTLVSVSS
# Chain of CH01 (antibody) (light, form in doubt): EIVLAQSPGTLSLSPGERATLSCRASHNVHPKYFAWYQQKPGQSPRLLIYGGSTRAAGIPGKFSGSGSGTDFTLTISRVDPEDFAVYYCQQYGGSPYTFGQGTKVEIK
substance,measurement,setting,value
PG16 (antibody),EC50,[1],10.3 nM
CH01 (antibody),IC50,[2],10 to 100 nM
same,"ID50 assayed in A3R5.7 cells, 644039.c01b-CM235LucR.T2A.11",[3],> 25 µg/mL
same,"ID50 assayed in TZM-bl cells, TH023.6",[4],> 25 µg/mL
same,"ID50 assayed in TZM-bl cells, CM244NW.4.K169Q",[5],0.05 µg/mL
same,"ID50 assayed in TZM-bl cells, 703357.2.I181L",[6],> 25 µg/mL
same,"ID50 assayed in TZM-bl cells, 703357.c02",[7],> 25 µg/mL
same,"ID50 assayed in TZM-bl cells, CM244.ec1",[8],0.02 µg/mL
same,"ID50 assayed in A3R5.7 cells, Du422.1.LucR.T2A.ecto",[9],> 25 µg/mL
same,"ID50 assayed in TZM-bl cells, 427299.c12.Q169K",[10],0.18 µg/mL
same,"ID50 assayed in TZM-bl cells, 703357.2.Q169K",[11],> 25 µg/mL
same,"ID50 assayed in A3R5.7 cells, CM235-2.LucR.T2A.ecto",[12],0.04 µg/mL
same,"ID50 assayed in A3R5.7 cells, SC22.3C2.LucR.T2A.ecto",[13],> 25 µg/mL
same,"ID50 assayed in TZM-bl cells, CM244NW.6.I181L",[14],0.03 µg/mL
same,"ID50 assayed in TZM-bl cells, 427299.c12.H81L",[15],0.16 µg/mL
same,"ID50 assayed in TZM-bl cells, 427299.c12",[16],0.09 µg/mL
same,"ID50 assayed in TZM-bl cells, TH023.6.K169Q",[17],22.8 µg/mL
same,"ID50 assayed in A3R5.7 cells, RHPA.LucR.T2A.ecto",[18],8.2 µg/mL
same,"ID50 assayed in A3R5.7 cells, Ce1086 B2.LucR.T2A.ecto",[19],> 25 µg/mL
same,"ID50 assayed in A3R5.7 cells, 1051.C22.LucR.T2A.ecto",[20],> 25 µg/mL
same,"ID50 assayed in TZM-bl cells, 703357.2.Q169KI181L",[21],> 25 µg/mL
same,"ID50 assayed in A3R5.7 cells, Du151.2.LucR.T2A.ecto",[22],1.51 µg/mL
same,"ID50 assayed in TZM-bl cells, TH023.6.I181L",[23],> 25 µg/mL
same,"ID50 assayed in TZM-bl cells, 703357.2.Q169KR170QI181L",[24],> 25 µg/mL
same,"ID50 assayed in A3R5.7 cells, CM244.c01.ETH2220LucR.T2A.4",[25],0.33 µg/mL
same,"ID50 assayed in A3R5.7 cells, WITO.LucR.T2A.ecto",[26],0.05 µg/mL
same,"ID50 assayed in TZM-bl cells, 427299.c12.KL.Q169K/I181L",[27],0.15 µg/mL
same,"ID50 assayed in A3R5.7 cells, Ce1176 A3.LucR.T2A.ecto",[28],0.04 µg/mL
same,"ID50 assayed in TZM-bl cells, 703357.2.Q169KR170Q",[29],> 25 µg/mL
same,% inhibition,[30],-11.2%
same,EC50,[31],> 10 µg/mL
same,EC50,[32],0.35 µg/mL
same,EC50,[33],> 10 µg/mL
same,EC50,[34],0.13 µg/mL
same,EC50,[35],0.93 µg/mL
same,EC50,[36],1.7 nM
same,Kd,[37],334 nM
same,koff,[37],0.0076 s⁻¹
same,kon,[37],23000 M⁻¹ s⁻¹
same,EC50,[38],0.9 nM
same,EC50,[39],1.3 nM
same,EC50,[40],0.47 nM
same,EC50,[41],> 66.7 nM
same,EC50,[42],8.9 nM
same,EC50,[1],> 667 nM
CH59 (antibody),EC50,[43],0.04 nM
same,EC50,[44],> 667 nM
same,EC50,[45],> 667 nM
same,EC50,[46],0.07 nM
Synagis (antibody),FITC MFI,[47],3600
same,% of p24+ cells stained (background),[48],11%
ACT-1 (antibody),% inhibition,[49],53.3%
same,% inhibition,[50],71.3%
A32 (antibody),% positive cells,[47],94%
same,FITC MFI,[47],19900
PG9 (antibody),EC50,[44],279 nM
same,EC50,[51],273 nM
same,EC50,[1],0.3 nM
